The supplement of paper PMC9732359
± gives the uncertainty stated by the source.

Assay: protein stability index of a GFP-peptide fusion (yeast GPS) (PSI 1-4); higher = more stable; sorted into four equal gates, so the index is relative within each strain
Method in brief: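 Peptides tiling yeast proteins in 17-residue segments were fused downstream of GFP, with Cherry expressed from the same plasmid. As a pooled library in yeast, mid-log cultures grown in leucine-free medium were sorted into four equal gates by GFP/Cherry fluorescence ratio. Gate plasmids were PCR-amplified and Illumina-sequenced, and barcodes linked reads to strains. Each peptide received a protein stability index equal to the sum of each gate's read frequency times its gate number.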

| Sequence | protein stability index (doa10∆) | protein stability index (pdr5∆) | protein stability index (san1∆) | protein stability index (ubr1∆) |
| --- | --- | --- | --- | --- |
| VGHLSILPQQSKLKLKN [ECM29] | 1.91 ± 0.16 | 2.31 ± 0.1 | 1.88 ± 0.13 | 2.5 ± 0.15 |
| LNDMNTEISGLKNVNKR [SMC3] | 3.26 ± 0.064 | 3.27 ± 0.072 | 3.06 ± 0.058 | 3.12 ± 0.045 |
| LNDLVESSFIEIDDTEA [BRR2] | 2.9 ± 0.037 | 2 ± 0.043 | 2.13 ± 0.069 | 2.25 ± 0.029 |
| SRTFDKYSKLVDNVTLE [SRP72] | 3.37 ± 0.12 | 3.36 ± 0.1 | 3.44 ± 0.094 | 3.3 ± 0.1 |
| ECFISMQSTSPAVKQWD [SWI1] | 2.34 ± 0.083 | 2.38 ± 0.058 | 2.4 ± 0.086 | 2.65 ± 0.06 |
| MGAINNNIPSLTSFAEE [SNF6] | 3.2 ± 0.13 | 3.43 ± 0.1 | 3.37 ± 0.15 | 3.35 ± 0.1 |
| SDIISMLQISDDNEMTR [RRI2] | 3.05 ± 0.096 | 3.24 ± 0.1 | 3.2 ± 0.045 | 2.87 ± 0.1 |
| DVPSEDDPTQLVSRGGC [RPO21] | 3.61 ± 0.28 | 3.06 ± 0.15 | 2.97 ± 0.21 | 3.01 ± 0.15 |
| FLKKNIIKENVKVARLA [FAS1] | – | 1.56 ± 0.26 | – | – |
| MSEEGPQVKIREASKDN [RPB3] | 3.18 ± 0.13 | 2.44 ± 0.039 | 2.94 ± 0.096 | 3.08 ± 0.083 |
| KTQFSWQYYYYTLTEEG [RPS10A] | 2.06 ± 0.065 | 2.33 ± 0.052 | 2.59 ± 0.054 | 2.35 ± 0.058 |
| SREIAQPSSSRYNGGND [SMB1] | 3.19 ± 0.087 | 3.22 ± 0.071 | 3.22 ± 0.053 | 3.31 ± 0.055 |
| EENNYQYGYSGSSAGMN [SNF6] | 2.22 ± 0.053 | 2.16 ± 0.077 | 1.94 ± 0.12 | 2.5 ± 0.065 |
| DIFGDSELFDEWFEQNN [ISW2] | 2.36 ± 0.069 | 2.49 ± 0.072 | 1.31 ± 0.15 | 1.63 ± 0.056 |
| VGQAGRPKKITGWITQS [RPN1] | 1.99 ± 0.059 | 2.27 ± 0.075 | 2.21 ± 0.12 | 2 ± 0.044 |
| TITIKSYHLWPSFTDEQ [PRP8] | 2.32 ± 0.057 | 2.81 ± 0.061 | 2.41 ± 0.073 | 2.51 ± 0.047 |
| VTLRKSLYTNTSRKALE [RPL3] | 2.66 ± 0.069 | 2.26 ± 0.059 | 1.78 ± 0.078 | 1.78 ± 0.072 |
| PQKYVLHPQLHEVQYQE [SIN4] | 1.49 ± 0.13 | 1.88 ± 0.082 | 2.15 ± 0.14 | 1.6 ± 0.064 |
| RKMTTDDDINWQELARS [RPT5] | 1.79 ± 0.055 | 2.93 ± 0.072 | 3.16 ± 0.097 | 3 ± 0.07 |
| PPPAPHNLHPQIGQVPL [SNF5] | 2.96 ± 0.059 | 2.94 ± 0.053 | 2.8 ± 0.045 | 3.01 ± 0.042 |
| PKYIDELKTRDATNTSY [SWP82] | 2.68 ± 0.095 | 3.12 ± 0.072 | 2.58 ± 0.079 | 2.94 ± 0.05 |
| PSYSPTSPSYSPTSPSY [RPO21] | 2.65 ± 0.03 | 2.884 ± 0.028 | 2.859 ± 0.028 | 2.815 ± 0.023 |
| DILLRLCVLWDDLQSSV [YCG1] | 1.65 ± 0.067 | 1.4 ± 0.051 | 1.72 ± 0.087 | 2.11 ± 0.07 |
| FPMKQGVLLPTRIKLLL [RPS6A] | 1.26 ± 0.053 | 1.39 ± 0.053 | 1.17 ± 0.094 | 1.29 ± 0.038 |
| NYEDVGRFLRVPKEGLF [BRR2] | 3.42 ± 0.076 | 3.5 ± 0.11 | 3.42 ± 0.078 | 3.49 ± 0.064 |
| AALDITNVQRIAAYIRR [SMC1] | 3.08 ± 0.16 | 3.07 ± 0.17 | 3.24 ± 0.13 | 3.09 ± 0.091 |
